Among the data in publication PMC2173521 are Mobs/Mcalc (mol wt found over that calculated for one N-1/C-1 heterodimer) and IC50 inhibition of cell–cell fusion by SV5 F (T7 luciferase reporter gene assay) values, retold here.

The target in assay [1] is N-1 peptide (derived from HRA of the SV5 F protein) (SV5 (W3A strain)). Kind of assay: AUC.
Assay [2] has the same target.

In the case of C-1 peptide I449L, the Mobs/Mcalc (mol wt found over that calculated for one N-1/C-1 heterodimer) in assay [1] is 2.8. Moreover, the IC50 inhibition of cell–cell fusion by SV5 F (T7 luciferase reporter gene assay) in assay [2] is 0.054 µM.

C-1 peptide I449F: the Mobs/Mcalc (mol wt found over that calculated for one N-1/C-1 heterodimer) in assay [1] is 2.9. Further, the IC50 inhibition of cell–cell fusion by SV5 F (T7 luciferase reporter gene assay) in assay [2] stood at 0.151 µM.

On to C-1 peptide L447A, for which, in assay [1], the Mobs/Mcalc (mol wt found over that calculated for one N-1/C-1 heterodimer) is 2.8. Further, the IC50 inhibition of cell–cell fusion by SV5 F (T7 luciferase reporter gene assay) in assay [2] is 0.092 µM.

As for C-1 peptide I449W, in assay [2], the IC50 inhibition of cell–cell fusion by SV5 F (T7 luciferase reporter gene assay) came to 0.146 µM.

Take C-1 peptide L447I: the Mobs/Mcalc (mol wt found over that calculated for one N-1/C-1 heterodimer) in assay [1] was 2.8. The IC50 inhibition of cell–cell fusion by SV5 F (T7 luciferase reporter gene assay) in assay [2] amounted to 0.05 µM.

C-1 peptide I449G: the Mobs/Mcalc (mol wt found over that calculated for one N-1/C-1 heterodimer) in assay [1] was 2.9. In assay [2], the IC50 inhibition of cell–cell fusion by SV5 F (T7 luciferase reporter gene assay) amounted to 0.271 µM.

With C-1 peptide L447F, the Mobs/Mcalc (mol wt found over that calculated for one N-1/C-1 heterodimer) in assay [1] was 2.9. The substance further gave an IC50 inhibition of cell–cell fusion by SV5 F (T7 luciferase reporter gene assay) in assay [2] of 0.1 µM.

In the case of C-1 peptide I449V, the Mobs/Mcalc (mol wt found over that calculated for one N-1/C-1 heterodimer) in assay [1] is 3. Besides, the IC50 inhibition of cell–cell fusion by SV5 F (T7 luciferase reporter gene assay) in assay [2] was 0.058 µM.

With C-1 peptide L447V, in assay [1], the Mobs/Mcalc (mol wt found over that calculated for one N-1/C-1 heterodimer) is 2.8. Besides, the IC50 inhibition of cell–cell fusion by SV5 F (T7 luciferase reporter gene assay) in assay [2] came to 0.083 µM.

With C-1 peptide L447G, the Mobs/Mcalc (mol wt found over that calculated for one N-1/C-1 heterodimer) in assay [1] was 2.7. The substance further returned an IC50 inhibition of cell–cell fusion by SV5 F (T7 luciferase reporter gene assay) in assay [2] of 0.15 µM.

With C-1 peptide I449A, the Mobs/Mcalc (mol wt found over that calculated for one N-1/C-1 heterodimer) in assay [1] is 2.8. In assay [2], this substance returned an IC50 inhibition of cell–cell fusion by SV5 F (T7 luciferase reporter gene assay) of 0.115 µM.

With C-1 peptide L447W, the Mobs/Mcalc (mol wt found over that calculated for one N-1/C-1 heterodimer) in assay [1] is 3.1. Moreover, in assay [2], the IC50 inhibition of cell–cell fusion by SV5 F (T7 luciferase reporter gene assay) was determined as 0.106 µM.

“C-1 peptide (derived from HRB of the SV5 F protein), wild type” registered an IC50 inhibition of cell–cell fusion by SV5 F (T7 luciferase reporter gene assay) in assay [2] of 0.038 µM.
